Measurements taken from patent US20190338002A1 (Pieris, published 2019).

Experiments:
[1] = target: T1, human alpha CGRP (SEQ ID NO: 80) (human, not fully specified); assay: cell-based or functional assay
T1 peptide: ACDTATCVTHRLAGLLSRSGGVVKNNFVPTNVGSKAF

[2] = target: T1, human alpha CGRP (SEQ ID NO: 80); assay: SPR, Biacore T200, 37 C; biotinylated mutein captured, human alpha CGRP analyte
Protocol: The Biotin CAPture Kit (GE Healthcare) was used to immobilized biotinylated lipocalin muteins to a chip surface. Muteins were biotinylated using standard NHS chemistry. Fifty-fold diluted Biotin CAPture Reagent (streptavidin conjugated with ss-DNA oligo) was captured on a Sensor Chip CAP with the pre-immobilized complementary ss-DNA oligo. Thereafter, biotinylated muteins at 200 nM were applied for 60 s at a flow rate of 10 μL/min.
The dilutions were injected with association times of 600 s and dissociation times of 1800 s. Regeneration of the chip surface was achieved by injecting 6 M Guanidinium-HCl+0.25 M NaOH (120 s) with a flow rate of 10 μL/min, followed by injecting 30% acetonitrile+0.25 M NaOH (120 s) with a flow rate of 10 μL/min. Injection of regeneration solutions was followed by an extra wash step with HBS-EP+ running buffer and a stabilization period of 60 s.
The data were double-referenced by subtraction of the corresponding signals measured for the control channel (loaded with Biotin CAPture reagent only) and by subtraction of buffer injections from the binding responses. Association rate constant ka and dissociation rate constant kd for the binding reaction were determined using Biacore T200 Evaluation Software version 1.0 for data processing and kinetic fitting. The data were globally fit with 1:1 binding model.

B1: tag-free lipocalin mutein SEQ ID NO: 88 (designed binder)
chain: GQDSTSDLIPAPPLSKVPLQQNFQDNQFHGKWYVVGRAGNDVLREDKDPEKMEATIYELKEDKSYNVTDVGFVQKRCMYVTHTFVPGSQPGEFTLGNIESYPGVTSALVRVVSTDYNQHAMVFVKLVKQNRELFEITLYGRTKELTSELKENFIRFSKSLGLPENHIVFPVPIDQCIDG
notes: biotinylated by NHS chemistry for capture in SPR; also called tag-free mutein 88
cAMP assay IC50 [1]: 0.17 nM | Kd [2]: 0.008 nM

B2: tag-free lipocalin mutein SEQ ID NO: 93 (designed binder)
chain: GQDSTSDLIHAPPLSKVPLQQNFQDNQFHGKWYVVGRAGNDVLREDKDPEKMEATIYELKEDKSYQVTDVGFVQKRCMYVTHTFVPGSQPGEFTLGNIESYPGVTSALVRVVSTDYNQHAMVFVKLVKQNRELFEITLYGRTKELTSELKENFIRFSKSLGLPENHIVFPVPIDQCIDD
notes: biotinylated by NHS chemistry for capture in SPR; also called tag-free mutein 93
cAMP assay IC50 [1]: 0.13 nM | Kd [2]: 0.011 nM

B3: tag-free lipocalin mutein SEQ ID NO: 90 (designed binder)
chain: GQDSTSDLKPAPPLSKVPLQQNFQDNQFHGKWYVVGRAGNDVLREDKDPEKMEATIYELKEDKSYNVTDVGFVQKRCMYVTHTFVPGSQPGEFTLGNIESYPGVTSALVRVVSTDYNQHAMVFVKLVKQNRELFEITLYGRTKELTSELKENFIRFSKSLGLPENHIVFPVPIDQCIDG
notes: biotinylated by NHS chemistry for capture in SPR; also called tag-free mutein 90
cAMP assay IC50 [1]: 0.16 nM | Kd [2]: 0.012 nM

B4: tag-free lipocalin mutein SEQ ID NO: 92 (designed binder)
chain: GQDSTSDLKPAPPLSKVPLQQNFQDNQFHGKWYVVGRAGNDVLREDKDPEKMEATIYELKEDKSYQVTDVGFVQKRCMYVTHTFVPGSQPGEFTLGNIESYPGVTSALVRVVSTDYNQHAMVFVKLVKQNRELFEITLYGRTKELTSELKENFIRFSKSLGLPENHIVFPVPIDQCIDD
notes: biotinylated by NHS chemistry for capture in SPR; also called tag-free mutein 92
cAMP assay IC50 [1]: 0.18 nM | Kd [2]: 0.01 nM

B5: tag-free lipocalin mutein SEQ ID NO: 89 (designed binder)
chain: GQDSTSDLIPAPPLSKVPLQQNFQDNQFHGKWYVVGRAGNDVLREDKDPEKMEATIYELKEDKSYQVTDVGFVQKRCMYVTHTFVPGSQPGEFTLGNIESYPGVTSALVRVVSTDYNQHAMVFVKLVKQNRELFEITLYGRTKELTSELKENFIRFSKSLGLPENHIVFPVPIDQCIDD
notes: biotinylated by NHS chemistry for capture in SPR; also called tag-free mutein 89
cAMP assay IC50 [1]: 0.17 nM | Kd [2]: 0.006 nM

B6: tag-free lipocalin mutein SEQ ID NO: 91 (designed binder)
chain: GQDSTSDLIHAPPLSKVPLQQNFQDNQFHGKWYVVGRAGNDVLREDKDPEKMEATIYELKEDKSYNVTDVGFVQKRCMYVTHTFVPGSQPGEFTLGNIESYPGVTSALVRVVSTDYNQHAMVFVKLVKQNRELFEITLYGRTKELTSELKENFIRFSKSLGLPENHIVFPVPIDQCIDG
notes: biotinylated by NHS chemistry for capture in SPR; also called tag-free mutein 91
cAMP assay IC50 [1]: 0.16 nM | Kd [2]: 0.01 nM

B7: tag-free lipocalin mutein SEQ ID NO: 87 (designed binder)
chain: GQDSTSDLIPAPPLSKVPLQQNFQDNQFQGKWYVVGWAGNTLLREDKDPIKMQAMIYELKEDKSYNVTWVYFADKKINYHIETFVPGSQPGEFTLGTIKSYPGETPILVRVVSTNYNQHAMVFFKGVNQNREIFEIVLYGRTKELTNELKENFIRFSKSLGLPENHIVFPVPIDQEIDG
notes: biotinylated by NHS chemistry for capture in SPR; also called tag-free mutein 87
cAMP assay IC50 [1]: 0.66 nM | Kd [2]: 0.081 nM
